Reference: publication PMC5652782

Target: eIF4E (UniProt P63074)
Experiment: anti-eIF4E IP, anti-histidine blot
Conditions: reference: wild type Hsp27; sites S15,S78,S82

binding against the reference: weaker
Substance: Hsp27 (from UniProt P04792) 3A (S15A/S78A/S82A)
